Measurements reported in the supplement of paper PMC10724198.
± gives the standard deviation of the averaged measurements.

Test system: Saccharomyces cerevisiae
Assay: protein stability index of tFT-peptide fusion (C-terminal peptide) (PSI (0-1 scale)); higher = more stable (slower turnover)
Conditions: temperature: 30 C
Procedure: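 MPS profiling in S. cerevisiae of the yeast C-terminome library: the last 12 aa of each annotated ORF are fused to the C-terminus of a sfGFP-mCherry timer, after a GGGS linker. Cells are FACS-sorted into 8 mCherry/sfGFP bins and deep-sequenced. PSI runs from 0 (unstable) to 1 (stable); wild type and das1Δ backgrounds, two technical replicates each.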

[1] = genetic background: das1 deletion

Sequence | protein stability index [1] | protein stability index (genetic background: wild type)
IVRPLELKYFGR [FCY22 C-terminal 12 aa] | 0.7236 ± 0.0033 | 0.688 ± 0.04
TYKRIKQDEKTD [ALG12 C-terminal 12 aa] | 0.7248 ± 0.0072 | 0.707 ± 0.015
QKAQDVDVSMQD [RPN13 C-terminal 12 aa] | 0.68 ± 0.022 | 0.654 ± 0.026
PPNSTSTNPYSS [SKG3 C-terminal 12 aa] | 0.729 ± 0.015 | 0.7181 ± 0.0014
CLFGMAWLSTIL [YIP4 C-terminal 12 aa] | 0.661 ± 0.015 | 0.623 ± 0.0079
YMKHLLECRSLW [PCD1 C-terminal 12 aa] | 0.733 ± 0.019 | 0.6945 ± 0.00077
VLDQITGDLKLY [PTH2 C-terminal 12 aa] | 0.691 ± 0.014 | 0.6285 ± 0.0052
QNEICQYDNTSP [YGR109W-B C-terminal 12 aa] | 0.7173 ± 0.0057 | 0.694 ± 0.012
MERLQKGWSLAK [MDY2 C-terminal 12 aa] | 0.71 ± 0.043 | 0.684 ± 0.02
SVFIAAVAAMLI [CCW14 C-terminal 12 aa] | 0.603 ± 0.013 | 0.586 ± 0.016
LQPMEAFKYDRS [BIO2 C-terminal 12 aa] | 0.71 ± 0.0075 | 0.731 ± 0.046
AIDTLLKMSSSD [SRL3 C-terminal 12 aa] | 0.703 ± 0.03 | 0.674 ± 0.051
KLRNSNNTRAED [AVO2 C-terminal 12 aa] | 0.67 ± 0.0067 | 0.672 ± 0.011
NDQNKNKQNAKR [YIL156W-A C-terminal 12 aa] | 0.7078 ± 0.0055 | 0.639 ± 0.011
AQAEVIRGLQSL [CAP2 C-terminal 12 aa] | 0.682 ± 0.023 | 0.672 ± 0.03
QEGGDNTKIKQN [RNP1 C-terminal 12 aa] | 0.731 ± 0.023 | 0.638 ± 0.024
EDYAYWGNRQLY [PER1 C-terminal 12 aa] | 0.7133 ± 0.0036 | 0.743 ± 0.038
VISYLLGADIHF [SMF3 C-terminal 12 aa] | 0.712 ± 0.013 | 0.7135 ± 0.0039
DKSCIDIRSIIH [YAP5 C-terminal 12 aa] | 0.706 ± 0.011 | 0.726 ± 0.041
DDDNEDVEMSDA [NOC2 C-terminal 12 aa] | 0.66818 ± 0.00066 | 0.693 ± 0.057
LRYYVSKLINFK [YNL324W C-terminal 12 aa] | 0.70435 ± 0.00064 | 0.6889 ± 0.00073

Sequence | protein stability index [1] | protein stability index (genetic background: wild type)
VNNAPARAKVSK [RCR2 C-terminal 12 aa] | 0.67539 ± 0.00065 | 0.669 ± 0.0023
TSSTPLVIVDSK [HXT10 C-terminal 12 aa] | 0.672 ± 0.013 | 0.713 ± 0.064
KHPRPFRQEHRC [YLR162W C-terminal 12 aa] | 0.6986 ± 0.0027 | 0.6577 ± 0.0057
LYAQLRENGLVP [SNU114 C-terminal 12 aa] | 0.695 ± 0.035 | 0.683 ± 0.038
LEDHTPPEDKPN [QCR10 C-terminal 12 aa] | 0.718 ± 0.021 | 0.695 ± 0.0076
SKEFVGSVYLNF [TRL1 C-terminal 12 aa] | 0.679 ± 0.009 | 0.678 ± 0.03
IDIPISVRQVTK [BUL1 C-terminal 12 aa] | 0.707 ± 0.0073 | 0.696 ± 0.013
FLPINVNDVPST [RGD3 C-terminal 12 aa] | 0.716 ± 0.0089 | 0.708 ± 0.069
VYSIESRVLGHN [OAC1 C-terminal 12 aa] | 0.679 ± 0.015 | 0.676 ± 0.055
EKLILAKKDQPN [IST3 C-terminal 12 aa] | 0.6926 ± 0.0055 | 0.709 ± 0.046
QLVKLQLVELKL [LAM5 C-terminal 12 aa] | 0.6108 ± 0.0024 | 0.602 ± 0.026
SNHECSQINLLE [YCL021W C-terminal 12 aa] | 0.695 ± 0.018 | 0.688 ± 0.017
KKLHEEYFGEDK [CRS1 C-terminal 12 aa] | 0.673 ± 0.031 | 0.646 ± 0.032
TCEACGNRWKFS [DST1 C-terminal 12 aa] | 0.7329 ± 0.0019 | 0.697 ± 0.013
LSRVGELYLSTD [SEC7 C-terminal 12 aa] | 0.683 ± 0.02 | 0.692 ± 0.038
FTLVGYDKEFSD [ADH6 C-terminal 12 aa] | 0.6911 ± 0.0014 | 0.70114 ± 0.00043
KNSGEKLVAVLN [YCR102C C-terminal 12 aa] | 0.6723 ± 0.001 | 0.666 ± 0.025
KPRWYRIWNFWC [GAP1 C-terminal 12 aa] | 0.803 ± 0.017 | 0.419 ± 0.024
VKKCWEKEKDGI [MKK2 C-terminal 12 aa] | 0.675 ± 0.018 | 0.663 ± 0.026
GILCSLMEFFTN [TDA6 C-terminal 12 aa] | 0.727 ± 0.053 | 0.712 ± 0.059
SLQKIDATYIRG [SDS22 C-terminal 12 aa] | 0.702 ± 0.017 | 0.687 ± 0.017

Sequence | protein stability index [1] | protein stability index (genetic background: wild type)
SLSSLSNQRCTT [YCR023C C-terminal 12 aa] | 0.709 ± 0.011 | 0.68 ± 0.052
TFAKSSRNKSKL [PCS60 C-terminal 12 aa] | 0.835 ± 0.011 | 0.811 ± 0.073
RIIEYFEEYQCW [FRE6 C-terminal 12 aa] | 0.712 ± 0.014 | 0.731 ± 0.042
KKMEARGQSIWV [RPN9 C-terminal 12 aa] | 0.713 ± 0.0075 | 0.6728 ± 0.0014
NYLFKLMGPSSD [VTC2 C-terminal 12 aa] | 0.687 ± 0.032 | 0.655 ± 0.008
NNQPHYRDQLLQ [REI1 C-terminal 12 aa] | 0.6976 ± 0.0028 | 0.706 ± 0.048
GLEKKKKKQNNQ [NPR1 C-terminal 12 aa] | 0.69 ± 0.015 | 0.662 ± 0.0018
KEMWITGKIVED [IML1 C-terminal 12 aa] | 0.672 ± 0.021 | 0.6639 ± 0.0055
GRLFEGMPGTET [ITT1 C-terminal 12 aa] | 0.709 ± 0.0093 | 0.71 ± 0.03
LNKKSSVKILLY [CMS1 C-terminal 12 aa] | 0.693 ± 0.01 | 0.614 ± 0.0071
HETMVNGSKRRL [DIF1 C-terminal 12 aa] | 0.686 ± 0.014 | 0.639 ± 0.014
NQKNEDLSDIKL [UTP30 C-terminal 12 aa] | 0.658 ± 0.019 | 0.755 ± 0.13
NNVDVSWVDKLV [STB5 C-terminal 12 aa] | 0.712 ± 0.013 | 0.714 ± 0.046
TADIVYIDSELD [SPE1 C-terminal 12 aa] | 0.6746 ± 0.0022 | 0.694 ± 0.083
TQQVVDDVLSRL [LYS12 C-terminal 12 aa] | 0.738 ± 0.0082 | 0.732 ± 0.038
EDVDEDTTPFNV [YTP1 C-terminal 12 aa] | 0.7138 ± 0.0053 | 0.684 ± 0.013
QQQQQQQQQQQQ [PUB1 C-terminal 12 aa] | 0.71 ± 0.029 | 0.672 ± 0.052
AKAGSTPKFRTE [YNL050C C-terminal 12 aa] | 0.6897 ± 0.0035 | 0.6555 ± 0.0053
YLYVFLQQARLE [YBR032W C-terminal 12 aa] | 0.51 ± 0.029 | 0.473 ± 0.018
KLDLPNVFHKKG [CHS2 C-terminal 12 aa] | 0.713 ± 0.027 | 0.706 ± 0.037
LCLLESLDCLAK [PMT7 C-terminal 12 aa] | 0.6692 ± 0.0024 | 0.68 ± 0.017

Sequence | protein stability index [1] | protein stability index (genetic background: wild type)
QYVLYKNEAGDK [AIM39 C-terminal 12 aa] | 0.689 ± 0.017 | 0.698 ± 0.019
YLIAVTNLVERE [PPT2 C-terminal 12 aa] | 0.682 ± 0.045 | 0.723 ± 0.086
NIKSSTLPGLSI [PFS2 C-terminal 12 aa] | 0.694 ± 0.02 | 0.664 ± 0.029
LEEFLVRGTNNQ [ATP25 C-terminal 12 aa] | 0.711 ± 0.018 | 0.663 ± 0.012
ILLHLEYAAAYS [STN1 C-terminal 12 aa] | 0.521 ± 0.033 | 0.552 ± 0.02
FVFALSYPYEEI [ALG2 C-terminal 12 aa] | 0.713 ± 0.011 | 0.693 ± 0.038
ARKFWTEDNNNL [STE2 C-terminal 12 aa] | 0.72 ± 0.023 | 0.691 ± 0.039
LKAVCPPDAGFA [YOR387C C-terminal 12 aa] | 0.7086 ± 0.0046 | 0.7462 ± 0.0071
KLMVEEINLDID [FZO1 C-terminal 12 aa] | 0.7048 ± 0.0045 | 0.747 ± 0.092
NEMRERLRALQN [VPS24 C-terminal 12 aa] | 0.668 ± 0.011 | 0.685 ± 0.054
ERPQDWFEDIGE [FCY1 C-terminal 12 aa] | 0.7168 ± 0.0043 | 0.686 ± 0.017
AEIISVRQVDQS [GIT1 C-terminal 12 aa] | 0.673 ± 0.017 | 0.705 ± 0.051
TLTQEEINELST [LTE1 C-terminal 12 aa] | 0.69603 ± 0.00028 | 0.689 ± 0.041
ATRKALETARSA [MRPL13 C-terminal 12 aa] | 0.718 ± 0.0076 | 0.728 ± 0.036
VRKNVTWNNLWE [CTF18 C-terminal 12 aa] | 0.705 ± 0.013 | 0.682 ± 0.042
LVDIITGASSLG [ATP3 C-terminal 12 aa] | 0.6894 ± 0.004 | 0.719 ± 0.041
KGTCGCGESFMV [ISA1 C-terminal 12 aa] | 0.71 ± 0.0094 | 0.69 ± 0.045
LFVTDGSLLLDL [EDC3 C-terminal 12 aa] | 0.703 ± 0.014 | 0.685 ± 0.032
LDKEMADYFEKK [YRA1 C-terminal 12 aa] | 0.693 ± 0.013 | 0.706 ± 0.035
VPELTEKLGKYK [AIM45 C-terminal 12 aa] | 0.697 ± 0.019 | 0.676 ± 0.026
